Data reported in US8822420B2, “Peptides and aptamers thereof as specific modulators of mutant p53 function” (Universita Degli Studi di Trieste, priority 2008, dated 2014).
No end group written: not given here. Ahx = NCCCCCC(=O)O

Tests used:
p53 R175H [1] = molecular target: T1, p53 R175H (Homo sapiens, UniProt P04637, R175H); assay: Co-immunoprecipitation of EGFP-TNV-PAs with p53 R175H in H1299 cells; type: binding; conditions: H1299 cells co-transfected with p53 R175H and EGFP-TNV-PAs, IP anti-GFP
T1 construct: expression of full-length point mutants (hereinafter identified also as mut-p53 or mutant p53); expressed in transfected cells; host or cells: H1299 (p53-null)

p53 R175H [2] = molecular target: T1, p53 R175H; assay: EGR1-Luc luciferase assay in H1299 cells, p53 R175H; type: cell-based; conditions: peptide 1.6, 4, 20 μM
Protocol: (§1) (a) The effect of PAs on mutant p53 transactivating activity was analyzed in MG63 cells transiently transfected with Myc-Luc reporter along with constructs expressing p53 D281G or empty vector and with p[…] vectors expressing PAs or control vectors pLPC-EGFP (EGFP) or p[…] (TNV). The promoter activity measured in each experiment was normalized to the value measured in the absence of mutant p53. RLU: Relative Luciferase Units. […] Expression of mutant p53 and PAs was analyzed by Western Blot with the indicated antibodies. (b) The effect of FsA79 peptide on the transactivation of EGR1 promoter by mutant p53 was analyzed in H1299 cells, transfected with EGR1-Luc reporter along with plasmids encoding either p53R175H (left) or p53R273H (right) and treated with increasing amounts of FsA79 peptide (1.6, 4, 20 μM). […] (c) The effect of PAs on p53 wt transcriptional activity was analyzed in H1299 cells transfected with p21-Luc reporter, wt p53-expressing vector or empty vector along with constructs expressing the EGFP-TNV-PAs or control vectors as in (a). […] (d) The effect of PAs on the transcriptional activity of TAp73α was analyzed as in (c). […] (e) The effect of PAs on p53 wt transcriptional activity was analyzed in H1299 cells transfected with Bax-Luc reporter, wt-p53 expressing vector or empty vector together with constructs expressing EGFP-TNV-PAs or control vectors as in FIG. 3(c). […]

p53 R273H = molecular target: T2, p53 R273H (Homo sapiens, UniProt P04637, R273H); assay: EGR1-Luc luciferase assay in H1299 cells, p53 R273H; type: cell-based; conditions: peptide 1.6, 4, 20 μM
T2 construct: expression of full-length point mutants (hereinafter identified also as mut-p53 or mutant p53); expressed in transfected cells; host or cells: H1299 (p53-null)
Protocol: as §1

Sk-Br-3 cells [3] = assay: FACS analysis of DNA content (propidium iodide) of EGFP-positive Sk-Br-3 cells; type: cell-based
Protocol: (a) The apoptotic effect of PAs was analyzed in U20S (expressing p53 wt), H1299 (p53 null), Sk-Br-3 (expressing p53R175H) and MDA-MB-468 (expressing p53R273H) cells. Cells were transfected either with constructs expressing EGFP-TNV-PAs or with pLPCcontrol vector, harvested after 36 hours and stained with propidium iodide before analyzing the DNA content of EGFP-positive cells by flow cytometry. Histograms represent the average and the s.d. of the percentage of cells with sub-G1 DNA content measured in three independent experiments. […] At least 10000 EGFP-positive cells were analyzed in each acquisition. Histograms represent the average and s.d. of three independent experiments. […] Expression of the overexpressed EGFP-TNV-PAs as well as endogenous cleaved PARP (p85), p53R175H and the proapoptotic protein Bax was analyzed by Western Blot with the indicated antibodies. (d) Analysis of AnnexinV-PE-Cyan5 binding of MDA-MB-468 cells treated and analyzed as described in FIG. 4(c). […] FACS analysis of DNA content was then performed as in (a). Aliquots of cell lysates untreated (NT) or treated with 50 μM Etoposide (Eto) were analyzed by Western Blot. […] Cells were transfected with EGFP-PAs and then left untreated or treated with 100 μM PRIMA-1. After additional 20 hours cells were harvested and analyzed as in FIG. 4(a).
Sk-Br-3, MDA-MB-468, H1299 or U20S cells were seeded in 6 wells and transfected with pLPCEGFP-TNV16mers or pLPCEGFP-TNV or pLPC. For cell cycle analysis, cells were collected by trypsinization, recovering also the supernatants, and resuspended in PBS/0.1% Nonidet P-40 (NP-40) containing 2 μg/ml RnaseA. 10 min later, 10 μg/ml propidium iodide was added. Cells were analyzed by cytofluorimeter (FACScalibur) after additional 20 minutes.

Sk-Br-3 cells [4] = assay: AnnexinV-PE-Cyan5 staining by flow cytometry, Sk-Br-3 cells; type: cell-based; conditions: Sk-Br-3, GFP positive cells, 36 hours after transfection
Protocol: (§2) (a) The apoptotic effect of PAs was analyzed in U20S (expressing p53 wt), H1299 (p53 null), Sk-Br-3 (expressing p53R175H) and MDA-MB-468 (expressing p53R273H) cells. Cells were transfected either with constructs expressing EGFP-TNV-PAs or with pLPCcontrol vector, harvested after 36 hours and stained with propidium iodide before analyzing the DNA content of EGFP-positive cells by flow cytometry. Histograms represent the average and the s.d. of the percentage of cells with sub-G1 DNA content measured in three independent experiments. […] At least 10000 EGFP-positive cells were analyzed in each acquisition. Histograms represent the average and s.d. of three independent experiments. […] Expression of the overexpressed EGFP-TNV-PAs as well as endogenous cleaved PARP (p85), p53R175H and the proapoptotic protein Bax was analyzed by Western Blot with the indicated antibodies. (d) Analysis of AnnexinV-PE-Cyan5 binding of MDA-MB-468 cells treated and analyzed as described in FIG. 4(c). […] Aliquots of cell lysates untreated (NT) or treated with 50 μM Etoposide (Eto) were analyzed by Western Blot. […] After additional 20 hours cells were harvested and analyzed as in FIG. 4(a).
(§3) Sk-Br-3, MDA-MB-468, H1299 or U20S cells were seeded in 6 wells and transfected with pLPCEGFP-TNV16mers or pLPCEGFP-TNV or pLPC. […] Cells were analyzed by cytofluorimeter (FACScalibur) after additional 20 minutes.

MDA-MB-468 cells = assay: AnnexinV-PE-Cyan5 staining by flow cytometry, MDA-MB-468 cells; type: cell-based; conditions: MDA-MB-468, GFP positive cells, 36 hours after transfection
Protocol: as §2, §3

Sk-Br-3 cells [5] = assay: PARP cleavage (p85) by Western Blot in Sk-Br-3 cells; type: cell-based
Protocol: (a) The apoptotic effect of PAs was analyzed in U20S (expressing p53 wt), H1299 (p53 null), Sk-Br-3 (expressing p53R175H) and MDA-MB-468 (expressing p53R273H) cells. Cells were transfected either with constructs expressing EGFP-TNV-PAs or with pLPCcontrol vector, harvested after 36 hours and stained with propidium iodide before analyzing the DNA content of EGFP-positive cells by flow cytometry. Histograms represent the average and the s.d. of the percentage of cells with sub-G1 DNA content measured in three independent experiments. […] At least 10000 EGFP-positive cells were analyzed in each acquisition. Histograms represent the average and s.d. of three independent experiments. […] Expression of the overexpressed EGFP-TNV-PAs as well as endogenous cleaved PARP (p85), p53R175H and the proapoptotic protein Bax was analyzed by Western Blot with the indicated antibodies. […] FACS analysis of DNA content was then performed as in (a). Aliquots of cell lysates untreated (NT) or treated with 50 μM Etoposide (Eto) were analyzed by Western Blot. […] Cells were transfected with EGFP-PAs and then left untreated or treated with 100 μM PRIMA-1. After additional 20 hours cells were harvested and analyzed as in FIG. 4(a). […]
To specifically evaluate the effect on cells expressing the aptamers, propidium-iodide staining was measured only in the GFP positive population.

wild-type p53 = molecular target: T3, wild-type p53 (Homo sapiens, UniProt P04637); assay: Bax-Luc luciferase assay in H1299 cells, wild-type p53; type: cell-based
T3 construct: expressed in transfected cells; host or cells: H1299
Protocol: (§4) (a) The effect of PAs on mutant p53 transactivating activity was analyzed in MG63 cells transiently transfected with Myc-Luc reporter along with constructs expressing p53 D281G or empty vector and with pLPC-EGFP-TNV vectors expressing PAs or control vectors pLPC-EGFP (EGFP) or pLPC-EGFP-TNV (TNV). The promoter activity measured in each experiment was normalized to the value measured in the absence of mutant p53. RLU: Relative Luciferase Units. […] Expression of mutant p53 and PAs was analyzed by Western Blot with the indicated antibodies. (b) The effect of FsA79 peptide on the transactivation of EGR1 promoter by mutant p53 was analyzed in H1299 cells, transfected with EGR1-Luc reporter along with plasmids encoding either p53R175H (left) or p53R273H (right) and treated with increasing amounts of FsA79 peptide (1.6, 4, 20 μM). Luciferase assays were performed and represented as in (a). (c) The effect of PAs on p53 wt transcriptional activity was analyzed in H1299 cells transfected with p21-Luc reporter, wt p53-expressing vector or empty vector along with constructs expressing the EGFP-TNV-PAs or control vectors as in (a). Luciferase assays were performed and represented as in (a). (d) The effect of PAs on the transcriptional activity of TAp73α was analyzed as in (c). […] (f) Effect of PAs on TAp73a transcriptional activity on Bax-Luc reporter was analyzed as described in FIG. 3(d). […]

TAp73α = molecular target: T4, TAp73α (Homo sapiens, UniProt O15350); assay: Bax-Luc luciferase assay in H1299 cells, TAp73α; type: cell-based
T4 construct: expressed in transfected cells; host or cells: H1299
T4 sequence (O15350 1-636): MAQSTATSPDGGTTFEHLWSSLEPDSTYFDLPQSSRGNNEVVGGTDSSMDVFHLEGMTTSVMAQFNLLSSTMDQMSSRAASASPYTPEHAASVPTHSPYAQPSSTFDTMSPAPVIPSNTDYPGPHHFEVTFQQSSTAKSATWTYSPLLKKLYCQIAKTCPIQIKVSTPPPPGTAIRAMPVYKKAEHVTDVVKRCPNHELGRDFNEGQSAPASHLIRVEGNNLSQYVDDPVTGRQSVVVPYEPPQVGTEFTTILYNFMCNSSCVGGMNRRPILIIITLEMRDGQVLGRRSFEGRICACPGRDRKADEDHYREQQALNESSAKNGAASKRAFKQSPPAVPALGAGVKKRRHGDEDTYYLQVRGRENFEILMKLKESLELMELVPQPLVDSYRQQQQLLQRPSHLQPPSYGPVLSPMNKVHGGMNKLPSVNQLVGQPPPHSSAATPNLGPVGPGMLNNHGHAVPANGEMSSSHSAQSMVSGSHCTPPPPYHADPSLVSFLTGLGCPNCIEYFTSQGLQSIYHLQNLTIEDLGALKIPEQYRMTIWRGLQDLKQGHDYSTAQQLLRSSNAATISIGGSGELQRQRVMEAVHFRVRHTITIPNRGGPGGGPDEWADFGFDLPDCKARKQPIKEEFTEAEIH
Protocol: as §4

p53 D281G = molecular target: T5, p53 D281G (Homo sapiens, UniProt P04637, D281G); assay: c-Myc-Luc luciferase assay in MG63 cells; type: cell-based; conditions: EGFP-TNV-PAs, 36 hours
T5 construct: expression of full-length point mutants (hereinafter identified also as mut-p53 or mutant p53); expressed in transfected cells; host or cells: MG63 (p53-null)
Protocol: as §1

AKYCQCAAKVRVTAAM [A3] was tested, and the “binding to p53 R175H by co-immunoprecipitation” value (from here on “binding to p53 R175H”) (p53 R175H [1]) was “showed a stronger interaction with p53 R175H”.

“FAM-Ahx-peptide sA79 ({FAM-Ahx}-DVADWESCGEYWCYRV; cysteine pairing not given here) [FsA79, fluoresceinated version of sA79 peptide]” was tested, and the “effect on transactivation of EGR1-Luc reporter by p53 R175H” value (p53 R175H [2]) was “inhibits the transactivation activity of both mutants” and the “effect on transactivation of EGR1-Luc reporter by p53 R273H” value (p53 R273H) was “inhibits the transactivation activity of both mutants”.

For GPVVPRTQYMSLAFGW [A29], the “binding to p53 R175H” value (p53 R175H [1]) was “showed a stronger interaction with p53 R175H”, the “apoptotic response (sub-G1) compared with Etoposide treatment alone” value (Sk-Br-3 cells [3]; Sk-Br-3) was “comparable to that observed upon drug treatment alone” and the “sub-G1 peak compared with PRIMA-1” value (Sk-Br-3 cells [3]; Sk-Br-3, PRIMA-1 100 μM for 20 hours) was “comparable to that induced by PRIMA-1”. The AnnexinV positive cells (Sk-Br-3 cells [4]) was “approximately 30%”, the AnnexinV positive cells (MDA-MB-468 cells) was “approximately 30%” and the “cleaved p85 fragment of PARP-1” value (Sk-Br-3 cells [5]) was “evident increase”.

In the case of “IQITLTGWSARVTTSG [A60, 16mer peptide aptamer in thioredoxin scaffold; free peptide not synthetized]”, the “binding to p53 R175H” value (p53 R175H [1]) is reported as “showed a stronger interaction with p53 R175H”, the “effect on transactivation activity of wild-type p53 on Bax-Luc reporter” value (wild-type p53) is reported as “all aptamers, but A60, do not significantly affect” and the “effect on transactivation activity of p73 on Bax-Luc reporter” value (TAp73α) is reported as “all aptamers, but A60, do not significantly affect”.

With “QRGLYCSCVTNQNAEV [B6, reference compound]” the “effect on transactivation activity of mutant p53 on c-Myc-Luc reporter” value (p53 D281G) was “did not showed any effect”, the “sub-G1 peak (apoptotic cell death)” value (Sk-Br-3 cells [3]; Sk-Br-3 (p53 R175H), GFP positive population, 36 hours after transfection) was “unable to induce apoptosis” and the AnnexinV positive cells (Sk-Br-3 cells [4]) was “less than 15%”. For the same substance, the AnnexinV positive cells (MDA-MB-468 cells) was “less than 15%”.

In the case of VWAESCDDCGEYWRYV [A79], the “binding to p53 R175H” value (p53 R175H [1]) is reported as “showed a stronger interaction with p53 R175H”.
